Usually stoichiometry N stands for the number of molecules, sites or subunits per partner or assembly.

Ten molecules from publication PMC5449618 (Nucleic Acids Research, 2017) can be followed below.

The target of test [1] is GST-fused HBO1 MYST domain (residues 336–611) (human, UniProt O95251 336-611). In words: pull-down.
The target in test [2] is HBO1 MYST domain (residues 336–611), without tag, co-expressed with BRPF2 (human, UniProt O95251 336-611). In words: crystal structure.
Sequence of HBO1 MYST domain (residues 336–611), without tag, co-expressed with BRPF2 (O95251 336-611): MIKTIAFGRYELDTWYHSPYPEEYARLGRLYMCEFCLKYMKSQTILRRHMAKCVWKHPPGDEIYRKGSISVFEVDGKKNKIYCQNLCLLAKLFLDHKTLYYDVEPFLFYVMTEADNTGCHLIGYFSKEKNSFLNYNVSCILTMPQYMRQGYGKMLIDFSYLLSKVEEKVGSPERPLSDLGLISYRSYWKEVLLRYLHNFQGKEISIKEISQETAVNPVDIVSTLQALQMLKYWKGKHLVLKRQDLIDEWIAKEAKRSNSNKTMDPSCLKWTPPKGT

Sequence of GST-fused HBO1 MYST domain (residues 336–611) (O95251 336-611): as above

As to MVEIEIEGRLHRISIFDPLEIILE (domain or fragment, human, UniProt O95696 39-62, looked up) [Sumo–BRPF2 (39–62)], the binding result in test [1] is given as “binds”. Same read-out and setting: with LTYAQAQRMVAIAIAGRLHRISIFDPLEIILEDDLTAQEMSECNSNKENS (domain or fragment, human, UniProt O95696 31-80, looked up) [Sumo–BRPF2 (31–80) E41A/E43A/E45A] the entry was “binds”. As to LTYAQAQRMVEIEIEGRLHRISIFDPLEIILEDDLTAQEMSECNSNKENS (domain or fragment, human, UniProt O95696 31-80, looked up) [BRPF2 (31–80), His6 tag removed, co-expressed with the HBO1 MYST domain], the “stoichiometry N” value in test [2] was determined as 1.

With LTYAQAQRMVEIEIEGRLHRISIFDPLEIILAAALTAQEMSECNSNKENS (domain or fragment, human, UniProt O95696 31-80, looked up) [Sumo–BRPF2 (31–80) E62A/D63A/D64A], the binding result in test [1] is on record as “binds”. As for LTYAQAQRMVEIEIEGRLHRISIFDPLEIILKKKLTAQEMSECNSNKENS (domain or fragment, human, UniProt O95696 31-80, looked up) [Sumo–BRPF2 (31–80) E62K/D63K/D64K], the binding result in test [1] is listed as “binds”.

With LTYAQAQRMVKIKIKGRLHRISIFDPLEIILEDDLTAQEMSECNSNKENS (domain or fragment, human, UniProt O95696 31-80, looked up) [Sumo–BRPF2 (31–80) E41K/E43K/E45K], the binding result in test [1] is “binds”. With MVEIEIEGRLHRISIFDPLEIILEDDLT (domain or fragment, human, UniProt O95696 39-66, looked up) [Sumo–BRPF2 (39–66)], in test [1], the binding result is “binds”.

B1: Sumo–BRPF2 (1–80) (domain or fragment, human, UniProt O95696 1-80, looked up)
chain: MRRKGRCHRGSAARHPSSPCSVKHSPTRETLTYAQAQRMVEIEIEGRLHRISIFDPLEIILEDDLTAQEMSECNSNKENS
Consider B1, for which the binding result in test [1] is listed as “binds”.

B2: Sumo–BRPF2 (1–205) (domain or fragment, human, UniProt O95696 1-205, looked up)
chain: MRRKGRCHRGSAARHPSSPCSVKHSPTRETLTYAQAQRMVEIEIEGRLHRISIFDPLEIILEDDLTAQEMSECNSNKENSERPPVCLRTKRHKNNRVKKKNEALPSAHGTPASASALPEPKVRIVEYSPPSAPRRPPVYYKFIEKSAEELDNEVEYDMDEEDYAWLEIVNEKRKGDCVPAVSQSMFEFLMDRFEKESHCENQKQG
Regarding B2, in test [1], the binding result is recorded as “binds”. With LTYAQAQRMVEIEIEGRLHRISIFDPLEIILE (domain or fragment, human, UniProt O95696 31-62, looked up) [Sumo–BRPF2 (31–62)], the binding result in test [1] is listed as “binds”.
